Assay results from the supplement of paper PMC10567573.
± gives the standard deviation.

Test: protein stability index of a GFP-peptide fusion (GPS, HEK-293T) (PSI 1-6); higher = more stable
[1] = treatment: DMSO, c terminus: a fixed tail appended
[2] = treatment: MLN4924 1 uM, 8 h, c terminus: a fixed tail appended
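Further: 24-mer peptide tiles fused after GFP, lentivirally expressed, FACS-sorted into six equal bins by GFP/DsRed ratio, decoded by Illumina sequencing, PSI is the read-weighted mean bin number.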

| Sequence | protein stability index [1] | protein stability index [2] | protein stability index (treatment: DMSO, c terminus: native) | protein stability index (treatment: MLN4924 1 uM, 8 h, c terminus: native) |
| --- | --- | --- | --- | --- |
| HEAFKDELKTFRLKTRSWAGERSR [CDC25B] | 3.57 ± 0.3 | 3.8 ± 0.22 |  |  |
| HTTIVATRHYRPPEVILELGWAQP [CLK3] | 2.26 ± 0.26 | 2.23 ± 0.16 |  |  |
| EETVTQDCLQLIADSETPTIQKGS [TNFSF13B] | 5.53 ± 0.36 | 5.42 ± 0.14 |  |  |
| EKALASILLQDHIRDLDVVVVSVA [ATL3] | 2.52 ± 0.65 | 2.21 ± 0.53 |  |  |
| KKTQETLSQAGQKTSAALSTVGSA [TPD52L2] | 4.87 ± 0.24 | 4.99 ± 0.25 |  |  |
| SLCKVFGAHKDCQVAPLTHVFQRQ [TRIM55] | 2.41 ± 0.35 | 2.66 ± 0.2 |  |  |
| WLLTHLLWFANAHLLSWFSPTIIF [DHCR7] | 3.36 ± 0.17 | 2.96 ± 0.3 |  |  |
| SAASVYAGAGGSGSRISVSRSTSF [KRT18] | 3.66 ± 0.066 | 3.59 ± 0.28 |  |  |
| CSRQFPEFQERARKRIRTYLKSCR [NOL4L] | 3.25 ± 0.15 | 3.36 ± 0.2 |  |  |
| KGCSLEQISMELAKVNYVKNNICF [SLC2A12] | 2.22 ± 0.35 | 2.27 ± 0.28 |  |  |
| MSMNNSKQLVSPAAALLSNTTCQT [PTGFR] | 3.79 ± 0.21 | 3.99 ± 0.12 |  |  |
| KSGEGFIDFIGQVHKTKEQFGQDG [PTPRD] | 4.24 ± 0.49 | 4.23 ± 0.17 |  |  |
| AACSSKRSPIIDVKNDRDRVGHKS [SERPINB5] | 4.85 ± 0.35 | 4.77 ± 0.11 |  |  |
| QICAQVSFFFPPVNLPISFFRKLL [NLN] | 2.76 ± 0.039 | 3.45 ± 0.17 |  |  |
| RTYFHEFGHVMHQICAQVSFFFPP [NLN] | 2.43 ± 0.43 | 3.41 ± 0.054 |  |  |
| KGLSVEFALLADKAAQQGKQEEND [SNX8] | 5.237 ± 0.033 | 5.13 ± 0.21 |  |  |
| APQHPAASALRTRMTGGRPPLPPP [DYRK1B] | 4.38 ± 0.15 | 4.41 ± 0.23 |  |  |
| LSTAASLGPSGLQNHGQHLILSRE [LCOR] | 3.99 ± 0.38 | 3.96 ± 0.16 |  |  |
| FSAPDPPRPRPVSLSLRLPHQPVT [SMTNL2] | 3.77 ± 0.12 | 3.91 ± 0.27 |  |  |
| AILLDAHHKTYDPTYSDFCQFRPP [VDR] | 2.31 ± 0.2 | 2.34 ± 0.29 |  |  |
| EVLGPLCLMLLMGTVHCQIVSTQI [PHTF1] | 3.27 ± 0.15 | 3.19 ± 0.2 |  |  |
| RDSLSHLVPALRLPGRKLVSSAVS [INTS4] | 3.04 ± 0.12 | 3.21 ± 0.24 |  |  |

| Sequence | protein stability index [1] | protein stability index [2] | protein stability index (treatment: DMSO, c terminus: native) | protein stability index (treatment: MLN4924 1 uM, 8 h, c terminus: native) |
| --- | --- | --- | --- | --- |
| ELFRLRGIKAQVALRLAELARRRR [NOP53] | 2.36 ± 0.23 | 2.55 ± 0.22 |  |  |
| HCHKRRTRSCSSASSRSQQSSKRS [CLK3] | 5.19 ± 0.26 | 5.06 ± 0.063 |  |  |
| KQDLVPGSPDDSHPKDGPSPGGTL [DLC1] | 5.53 ± 0.25 | 5.37 ± 0.43 |  |  |
| WSQPITTGKAPSPRAAHACATVGN [KLHDC2] | 3.84 ± 0.3 | 3.92 ± 0.2 |  |  |
| SKTVTSTMLGVFREDPKTREEFLT [GCH1] | 4.12 ± 0.1 | 4.11 ± 0.24 |  |  |
| NGINLFDTAEVYAAGKAEVVLGNI [KCNAB2] | 2.89 ± 0.3 | 3 ± 0.3 |  |  |
| DANTWRLYGGMNYRRLGGGVGVIK [KLHL20] | 2.63 ± 0.24 | 2.54 ± 0.38 |  |  |
| NSPLHIAALNNHPDIMNLLIKSGA [FEM1C] | 2.54 ± 0.1 | 2.78 ± 0.12 |  |  |
| SEVSFEGAYGNLKRLYDKAAKMYH [SMG5] | 2.44 ± 0.29 | 2.23 ± 0.29 |  |  |
| VYSQASTMSIPVAMETDGPLFEDV [PPP2R5C] | 3.94 ± 0.31 | 4.14 ± 0.15 |  |  |
| RSLLGYDPQILQMLKEEHQIILEN [RAD54B] | 2.94 ± 0.19 | 3.11 ± 0.21 |  |  |
| PCSPDSSSVCVQGRCIHAGCDRII [ADAMTS4] | 3.84 ± 0.58 | 3.67 ± 0.25 |  |  |
| GPGEPDVRDGFSATFEKILESELL [PSD2] | 3.91 ± 0.25 | 4.03 ± 0.34 |  |  |
| ADFSSMLSEEEKEELKAELVQLED [TPD52L1] | 5.47 ± 0.32 | 5.3 ± 0.37 |  |  |
| IAEDGTKEIESQGSIPGFLISSGM [TAF7L] | 4.25 ± 0.28 | 4.21 ± 0.38 |  |  |
| LTKAATSGVGIDGEVLSYLELAQF [RHOBTB1] | 2.44 ± 0.18 | 2.47 ± 0.43 |  |  |
| AIVFTDGRAQDDVSEWASKAKANG [MATN2] | 3.92 ± 0.29 | 4.26 ± 0.34 |  |  |
| FAALRASLVAPLLLELAGEVTDTG [MYORG] | 2.13 ± 0.39 | 2.36 ± 0.4 |  |  |
| FEDEVKRLGWQQQAELQELEERLQ [MTUS2] | 4.17 ± 0.4 | 4.28 ± 0.54 |  |  |
| QQKEEEEEMAVVPQGLFRGGKSGE [CHGA] | 5.52 ± 0.28 | 5.63 ± 0.12 |  |  |
| YICPDYQSYFKTIEDFQQKILLTK [KRT36] | 2.33 ± 0.59 | 2.13 ± 0.28 |  |  |
| FLTHFILMNDVIDTSGFPDLSDNR [FBXO33] | 2.41 ± 0.47 | 2.27 ± 0.43 |  |  |

| Sequence | protein stability index [1] | protein stability index [2] | protein stability index (treatment: DMSO, c terminus: native) | protein stability index (treatment: MLN4924 1 uM, 8 h, c terminus: native) |
| --- | --- | --- | --- | --- |
| LDHLSLGEEPVPHQQVEEALSFTL [NEK8] | 4.1 ± 0.35 | 4 ± 0.29 |  |  |
| SARCVVSFNILVEDRVKLFGIEIE [PCDHGA10] | 2.12 ± 0.68 | 1.95 ± 0.27 |  |  |
| TQSDEENGRACEMNGEECAEDLRM [IKZF1] | 5.66 ± 0.28 | 5.66 ± 0.19 |  |  |
| DEDFTFGAYQPTVVSSEGRQSRRQ [FBF1] | 4.77 ± 0.24 | 4.89 ± 0.3 |  |  |
| EVRYYLRQIVSGLKYLHEQEILHR [PLK2] | 3.11 ± 1 | 2.91 ± 0.58 |  |  |
| RQKEVDFCISLLRERFMECLMIGR [INTS3] | 2.52 ± 0.74 | 2.28 ± 0.13 |  |  |
| VLDILTRLPESVERLTGVSISQVN [FLOT1] | 2.43 ± 0.23 | 2.3 ± 0.48 |  |  |
| GVPPLKLCKNLNREAQQYSEALAS [GLIPR2] | 3.89 ± 0.44 | 3.96 ± 0.14 |  |  |
| IEARRRALKRFVNLVARHPLFSED [SNX8] | 2.37 ± 0.67 | 2.61 ± 0.43 |  |  |
| LEKEQVAHIRAERDILVEADGAWV [STK38L] | 3.8 ± 0.31 | 3.916 ± 0.026 |  |  |
| VSTVSHADADCFVCVFLSHGEGNH [CASP6] | 2.37 ± 0.2 | 2.18 ± 0.17 |  |  |
| ATGKHYGASSCDGCKGFFRRSVRK [HNF4A] | 3.35 ± 0.19 | 3.73 ± 0.21 |  |  |
| VVFPYTSKSCMRAVLEYLYTGMFT [RHOBTB2] | 2.81 ± 0.42 | 2.77 ± 1.1 |  |  |
| EHCGAVCFVKDNPQKSYFIRLYGL [WAS] | 2.32 ± 0.35 | 2.31 ± 0.64 |  |  |
| AEGAVPETQTLTGWSKGFIGMHRE [RHOBTB1] | 4.09 ± 0.12 | 4 ± 0.23 |  |  |
| HYYKENDPSVRLKIASLLGLLSKT [INTS4] | 2.05 ± 0.31 | 2.18 ± 0.23 |  |  |
| TAYSRLNETQPIDLSGLPLQSSKN [RNF180] | 3.76 ± 0.27 | 3.86 ± 0.25 |  |  |
| EVKRAFFSKSKELHPDRDPGNPSL [DNAJC4] | 3.89 ± 0.12 | 4.03 ± 0.37 |  |  |
| IASIADVCESMKEQLLVLVEWAKY [HNF4A] | 2.42 ± 0.36 | 2.15 ± 0.38 |  |  |
| HSQRTALHLAAQKALRTISTGRI [INVS] |  |  | 3.08 ± 0.9 | 2.36 ± 0.086 |
| DRLRDEELAELEDALRNLKCGSGA [TRADD] | 4.95 ± 0.23 | 4.95 ± 0.24 |  |  |
